Data: US20240034778A1 (REGENTS OF THE UNIVERSITY OF MICHIGAN, published 2024)

How the values were obtained:
[1] = molecular target: T1, disaggregated Aβ (Aβ1-42) (UniProt P05067 672-713); test: immunodot blot, antibody at 10 nM, 45 minute exposure
T1 construct: domain: Aβ1-42; Same peptide as the fibrils, in the disaggregated (soluble) state; also called soluble Aβ; Aβ monomer
Procedure: (§1) FIG. 6A includes images of an immunoblot analysis of the conformational and sequence specificity of the selected Aβ antibodies. Disaggregated Aβ and fibrillar Aβ, IAPP, and αSyn were immobilized on nitrocellulose membranes and probed with anti-Aβ antibodies (10 nM in PBS with 1% milk). The blots were imaged after relatively short exposure times (30 seconds) except for AF1 (45 minute exposure). A loading control blot was detected using colloidal silver stain. The experiments were repeated three times and a representative example is shown. FIG. 6B includes images of immunoblot analysis of the conformational and sequence specificity of the selected Aβ antibodies using a long exposure time. The blots were processed and imaged as described in FIG. 6A except that all of the blots were processed after a relatively long exposure time (45 minutes). A loading control blot was detected using colloidal silver stain. The experiments were repeated three times and a representative example is shown.
(§2) The conformational specificity of the selected antibodies was then assessed using immunodot blots (FIG. 6A).

[2] = molecular target: T2, Aβ fibrils (fibrils of Aβ1-42) (UniProt P05067 672-713); test: immunodot blot, antibody at 10 nM, 30 second exposure
T2 construct: domain: Aβ1-42; Fibrillar (aggregated) state of synthetic Aβ1-42; For flow cytometry the fibrils were doped with 1% biotinylated Aβ1-42 and held on streptavidin Dynabeads; for dot blots unlabeled fibrils were spotted on nitrocellulose; also called Aβ42 fibrils; fibrillar Aβ
Procedure: as §1, §2

[3] = molecular target: T2, Aβ fibrils (fibrils of Aβ1-42); test: flow cytometry, antibody on Aβ fibril-coated streptavidin beads (fibril batch of FIG. 10)
Procedure: (§3) For affinity analysis, the binding of antibodies to Aβ fibrils was evaluated using streptavidin dynabeads and flow cytometry. Beads were immobilized with 1% biotinylated fibrils as described above. The fibril-coated beads were washed twice with PBSB and then blocked with 10% milk in PBS at room temperature for 1 hour with end-over-end mixing. Afterward, the beads were washed 2× with PBSB.
(§4) Antibodies were thawed and centrifuged at 21000× g for 5 minutes to remove aggregates. The supernatant was transferred to a new tube and the antibody concentration was determined by measuring absorbance at 280 nm. Antibody dilutions were made in PBSB. Fibril-coated beads (1.25×10⁵ beads per evaluated antibody concentration) were incubated with antibodies in 96 well plates (Greiner, 650261) in 1% milk for 3 hours at 25° C.(300 RPM). Next, the plates were centrifuged at 3500 RPM for 5 minutes, the supernatants were discarded, and the beads were washed once with ice-cold PBSB. After washing, the plates were spun down again and the beads with resuspended with 300× diluted goat anti-human Fc AF647 (Jackson Immunoresearch, 109-605-098) on ice for 4-5 minutes. […] Two independent repeats were performed with different batches of beads coated with Aβ fibrils.

[4] = molecular target: T2, Aβ fibrils (fibrils of Aβ1-42); test: flow cytometry, antibody on Aβ fibril-coated streptavidin beads (fibril batch of FIG. 5)
Procedure: as §3, §4

[5] = molecular target: T2, Aβ fibrils (fibrils of Aβ1-42); test: flow cytometry, antibody on Aβ fibril-coated streptavidin beads
Procedure: as §3, §4

B1: Clone 101 (Fc fusion)
VH: EVQLVESGGGLVQPGGSLRLSCAASGFNIKDTYIHWVRQAPGKGLEWVARIYPASGSTRYAGSVKGRFTISADTSKNTAYLQMNSLRAEDTAVYYCARDGYDGSYFVGYDYNDFYDYWGQGTLVTVSS
VL: DIQMTQSPSSLSASVGDRVTITCRASQNVYSAVTWYQQKPGKAPKLLIYSASFLYSGVPSRFSGSRSGTDFTLTISSLQPEDFATYYCQQHSTYPPTFGQGTKVEIK
- binding result [1]: binds
- binding result [2]: binds

B2: Clone 97 (Fc fusion)
VH: EVQLVESGGGLVQPGGSLRLSCAASGFNIKDTYIHWVRQAPGKGLEWVARIYPASGATRYADSVKGRFTISADTSKNTAYLQMNSLRAEDTAVYYCARDGYDGSYFVGYDYNDFYDYWGQGTLVTVSS
VL: DIQMTQSPSSLSASVGDRVTITCRASQNVAYAVTWYQQKPGKAPKLLIYSASFLYSGVPSRFSGSRSGTDFTLTISSLQPEDFATYYCQQHSTYPPTFGQGTKVEIK
notes: also called parental antibody (clone 97); 97 WT
- EC50 [3]: 18 nM
- EC50 [4]: 8 nM

B3: Clone 93 (Fc fusion)
VH: EVQLVESGGGLVQPGGSLRLSCAASGFNIKDTYIHWVRQAPGKGLEWVARIYPSNGYTRYAGSVKGRFTISADTSKNTAYLQMNSLRAEDTAVYYCARDGYDGSYFVGYDYNDFYDYWGQGTLVTVSS
VL: DIQMTQSPSSLSASVGDRVTITCRASQNVYNAVTWYQQKPGKAPKLLIYSASFLYSGVPSRFSGSRSGTDFTLTISSLQPEDFATYYCQQHNTYPPTFGQGTKVEIK
- binding result [1]: binds
- binding result [2]: binds

B4: crenezumab (antibody, V domains shown)
VH: EVQLVESGGGLVQPGGSLRLSCAASGFTFSSYGMSWVRQAPGKGLELVASINSNGGSTYYPDSVKGRFTISRDNAKNSLYLQMNSLRAEDTAVYYCASGDYWGQGTTVTVSS
VL: DIVMTQSPLSLPVTPGEPASISCRSSQSLVYSNGDTYLHWYLQKPGQSPQLLIYKVSNRFSGVPDRFSGSGSGTDFTLKISRVEAEDVGVYYCSQSTHVPWTFGQGTKVEIKR
- EC50 [5]: 9 nM
